Experimental data: paper PMC9900795 (bioRxiv, 2023)
Blank lines part the entries; values can stand above or below the molecule they belong to.

What was measured:
Experiment in all cases: pull-down
[1] = molecular target: FL-Ndel1^PM, full-length Ndel1 with the five sites phosphorylated by CDK5 mutated to aspartic acid (UniProt Q9GZM8)
[2] = molecular target: NT-Ndel1, truncation of Ndel1 containing only the N-terminal coiled-coil (UniProt Q9GZM8)
[3] = molecular target: Ndel1^ΔCTCC, Ndel1 with the C-terminal coiled-coil containing the purported heavy chain-binding site deleted (UniProt Q9GZM8)
[4] = molecular target: T1, Lis1 (UniProt P43034 1-410)
T1 sequence: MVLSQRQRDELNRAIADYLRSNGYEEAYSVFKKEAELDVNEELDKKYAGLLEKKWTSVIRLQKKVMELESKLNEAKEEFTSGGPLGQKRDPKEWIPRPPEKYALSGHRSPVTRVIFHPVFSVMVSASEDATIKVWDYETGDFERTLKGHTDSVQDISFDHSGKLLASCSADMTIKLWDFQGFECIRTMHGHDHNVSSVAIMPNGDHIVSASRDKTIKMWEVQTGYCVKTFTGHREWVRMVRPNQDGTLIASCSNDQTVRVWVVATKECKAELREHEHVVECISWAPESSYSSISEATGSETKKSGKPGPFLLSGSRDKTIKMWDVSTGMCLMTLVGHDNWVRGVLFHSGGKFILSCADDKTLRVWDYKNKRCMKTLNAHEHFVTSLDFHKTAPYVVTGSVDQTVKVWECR

[5] = molecular target: FL-Ndel1^PM, full-length Ndel1 with the five sites phosphorylated by CDK5 mutated to aspartic acid (UniProt Q9GZM8); remark: listed apart in the source

B2: Lis1 (natural protein)
chain: T1 sequence
- Kd [5]: 4 nM

B3: NT-Ndel1, truncation of Ndel1 containing only the N-terminal coiled-coil (domain or fragment)
chain: MDGEDIPDFSSLKEETAYWKELSLKYKQSFQEARDELVEFQEGSRELEAELEAQLVQAEQRNRDLQADNQRLKYEVEALKEKLEHQYAQSYKQVSVLEDDLSQTRAIKEQLHKYVRELEQANDDLERAKRATIVSLEDFEQRLNQAIERNAFLESELDEKESLLVSVQRLKDEARDLRQELAVRERQQEVTR
- Kd [4]: ~1.2 nM

Now from value to molecule:

- fold higher affinity than FL-Ndel1 [1]: 2 fold
- Kd [2]: 79 nM
- Kd [3]: 55 nM
Molecule: SNAP-tagged, recombinant full-length human dynein with all associated accessory chains (from UniProt Q14204;O43237;P63172;Q9NP97;P63167) (complex)

- Kd [4]: ~4 nM
B1: full-length Ndel1 (FL-Ndel1), HaloTag at the N-terminus and 6X-His tag at the C-terminus (natural protein)
chain: MDGEDIPDFSSLKEETAYWKELSLKYKQSFQEARDELVEFQEGSRELEAELEAQLVQAEQRNRDLQADNQRLKYEVEALKEKLEHQYAQSYKQVSVLEDDLSQTRAIKEQLHKYVRELEQANDDLERAKRATIVSLEDFEQRLNQAIERNAFLESELDEKESLLVSVQRLKDEARDLRQELAVRERQQEVTRKSAPSSPTLDCEKMDSAVQASLSLPATPVGKGTENTFPSPKAIPNGFGTSPLTPSARISALNIVGDLLRKVGALESKLAACRNFAKDQASRKSYISGNVNCGVLNGNGTKFSRSGHTSFFDKGAVNGFDPAPPPPGLGSSRPSSAPGMLPLSV
